From US12331106B2, “Anti-angiopoietin-2 antibodies that induce Tie2 activation” (Institute for Basic Science, priority 2018, dated 2025)

Experiments:
hAng2 = target: T1, hAng2 (Homo sapiens, UniProt O15123); experiment: OCTET affinity of humanized anti-Ang2 antibodies against hAng2; format: binding; conditions: OCTET, antibody fixed on AR2G biosensor, hAng2 50-0 nM, 1:1 binding model
T1 sequence (O15123 19-496): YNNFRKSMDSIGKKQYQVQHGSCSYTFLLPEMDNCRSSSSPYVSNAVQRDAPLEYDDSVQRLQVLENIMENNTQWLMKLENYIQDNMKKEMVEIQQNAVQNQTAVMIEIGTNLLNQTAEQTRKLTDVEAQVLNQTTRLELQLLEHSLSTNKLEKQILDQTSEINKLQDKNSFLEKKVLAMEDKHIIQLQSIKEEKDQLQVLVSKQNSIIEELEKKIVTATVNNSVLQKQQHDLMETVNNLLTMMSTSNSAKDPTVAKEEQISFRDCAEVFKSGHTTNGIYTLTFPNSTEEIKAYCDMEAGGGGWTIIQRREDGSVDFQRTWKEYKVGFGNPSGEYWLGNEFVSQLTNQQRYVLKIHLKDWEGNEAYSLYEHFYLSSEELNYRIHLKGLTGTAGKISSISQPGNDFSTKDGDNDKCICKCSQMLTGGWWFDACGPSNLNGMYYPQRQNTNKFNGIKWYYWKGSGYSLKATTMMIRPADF
Protocol: The affinity of humanized anti-Ang2 antibody against hAng2 was measured using OCTET® system (ForteBio). Specifically, buffer and samples were measured in total 200 μl/well using Black 96-well plates (96 well F-type black plates, Greiner). The biosensor used for affinity measurements was hydrated for 10 min before measurement with AR2G tip (ForteBio OCTET®). After the hydration, humanized anti-Ang2 antibody was diluted in 10 mM sodium acetate, pH 6.0 buffer at a concentration of 10 μg/ml, fixed on AR2G biosensor, and blocked with 1M ethanolamine. The recombinant hAng2 was diluted to 50, 25, 12.5, 6.25, 3.125, and 0 nM with 1× kinetic buffer, and subjected to association for 300 sec and dissociation for 900 sec. For affinity measurement (KD), association rate (K-on) and dissociation rate (K-off) were analyzed by binding curve (global) and fitted to 1:1 binding model using OCTET® data analysis v9.0.0.10 program.
The affinities of humanized 2C8 antibodies to hAng2 were in Table 15.

[1] = test system: tumor vessels of LLC tumor; experiment: Tumor vessel normalization (CD31, PDGFRβ immunofluorescence) in LLC tumors; format: in vivo, C57BL/6 mice; conditions: compared with Fc or Fc+Cpt
From the text: In order to investigate the changes in tumor vessels by 2C811 antibody, we obtained frozen sections of tumor samples and performed immunofluorescence analyses by staining with a blood vessel-specific marker, CD31, and pericyte-specific marker, PDGFRβ. In detail, the tumor samples were harvested from the mice from the experiment described in Example 8, which were fixed in 4% paraformaldehyde (PFA, Merck), dehydrated in 30% sucrose (Junsei), embedded in OCT compound (Leica), and sectioned using a cryostat (Leica). The resulting frozen sections were blocked for 1 hr using a Protein Blocking Buffer (DAKO). Then the sections were stained with hamster anti-CD31 antibody (1:200, Millipore®) and rat anti-PDGFRB antibody (1:200, eBioscience™) in PBS at 4° C. for 8 hrs. After washing 3 times with PBS, the sections were stained with ALEXA FLUOR® 488-conjugated anti-hamster IgG antibody and Alexa ALEXA FLUOR® 594-conjugated anti-rat IgG antibody (1:1000, Jackson Immunoresearch) in PBS for 1 hr at room temperature. After another 3 washes with PBS, the sections were mounted in fluorescence mounting medium (DAKO) using a coverslip (Marienfeld). The stained sections were imaged using LSM880 confocal microscope (Zeiss). […]

[2] = test system: CD31+ endothelial cells of CNV; experiment: Co-localization of subcutaneously injected antibody with CD31 in endothelial cells of CNV; format: in vivo, mice; conditions: 25 mg/kg subcutaneous at 1 day; 2, 4 and 8 days after laser photocoagulation
Protocol: To investigate whether subcutaneously injected 2C8H11 can also exert the therapeutic effects on CNV, we firstly evaluated co-localization 2C8H11 antibody and CD31 in endothelial cells of CNV. The subcutaneous administration of 2C8H11 antibody (25 mg/kg) was performed at 1 day after laser photocoagulation. As a control, Fc (25 mg/kg) was administered in the same manner to the mice. The co-localization of 2C8H11 antibody and anti-CD31 antibody (1:200, Millipore®) in endothelial cells of CNV was directly detected by anti-human IgG antibody (1:1000, Jackson ImmunoResearch Laboratories) at 2, 4, and 8 days after laser photocoagulation (FIG. 15A).

[3] = test system: choroidal neovascularization (CNV); experiment: Laser-induced CNV model, subcutaneous injection: CNV inhibition; format: in vivo, mice; conditions: 25 mg/kg subcutaneous at 1 day; 8 days after laser photocoagulation
Protocol: To determine the effect of subcutaneously injected 2C8H11 antibody in CNV inhibition, the subcutaneous administration of 2C8H11 antibody (25 mg/kg) was performed at 1 day after laser photocoagulation. As a control, Fc (25 mg/kg) was administered in a same manner to the mice. Anti-CD31 antibody (1:200, Millipore®) was used for the detection of endothelial cells of CNV, and CD31+CNV volumes of the RPE-choroid-sclera flat mounts were calculated using the MATLAB® Image Processing Toolbox™(Math Works) at 8 days after laser photocoagulation (FIG. 16A).

B1: 2C8H11: humanized anti-Ang2 human IgG1 antibody from mouse 2C8; VH SEQ ID NO: 55, VL SEQ ID NO: 56 (antibody, V domains shown)
VH: QVQLVQSGAEVKKPGASVKVSCKASGYTFTSYWMHWVRQAPGQGLEWMGMIDPSDSETRLNQKFKDRVTMTRDTSTSTVYMELSSLRSEDTAVYYCARRFYYGSDWYFDVWGQGTLVTVSS
VL: DIQLTQSPSFLSASVGDRVTITCKASQDVGTAVAWYQQKPGKAPKLLIYWASTRHTGVPSRFSGSGSGTEFTLTISSLQPEDFATYYCQQYSSYPLTFGQGTKVEIK
modifications: human IgG1 constant regions; VH; VL
- Kdis (hAng2): 1.4e-05 s⁻¹
- Kon (hAng2): 66000 M⁻¹ s⁻¹
- PDGFRβ+ pericyte coverage increase [1]: 2.4 fold
- tumor blood vessel (BV) density reduction [1]: 56%
- detection of administered antibody in CD31+ endothelial cells in CNV area [2]: highly detectable
- inhibition of CNV formation compared with Fc (CD31+ CNV volume) [3]: 69.9%
